Test results reported in patent US20120276091A1 (HANWHA CHEMICAL, published 2012).

Columns and labels:
[1] = target: T1, recombinant human VCAM-1 domain 1-7/Fc chimera (R&D, 862-VC) (human, UniProt P19320 25-698); assay: BIACORE (SPR), VCAM1/Fc immobilised on CM5 chip, antibody as analyte, 1:1 binding model
T1 construct: domain: D1-D7; Bought; also called VD7; hVCAM-Fc-chimera; not shown: Fc of the bought chimera
T1 sequence (looked up): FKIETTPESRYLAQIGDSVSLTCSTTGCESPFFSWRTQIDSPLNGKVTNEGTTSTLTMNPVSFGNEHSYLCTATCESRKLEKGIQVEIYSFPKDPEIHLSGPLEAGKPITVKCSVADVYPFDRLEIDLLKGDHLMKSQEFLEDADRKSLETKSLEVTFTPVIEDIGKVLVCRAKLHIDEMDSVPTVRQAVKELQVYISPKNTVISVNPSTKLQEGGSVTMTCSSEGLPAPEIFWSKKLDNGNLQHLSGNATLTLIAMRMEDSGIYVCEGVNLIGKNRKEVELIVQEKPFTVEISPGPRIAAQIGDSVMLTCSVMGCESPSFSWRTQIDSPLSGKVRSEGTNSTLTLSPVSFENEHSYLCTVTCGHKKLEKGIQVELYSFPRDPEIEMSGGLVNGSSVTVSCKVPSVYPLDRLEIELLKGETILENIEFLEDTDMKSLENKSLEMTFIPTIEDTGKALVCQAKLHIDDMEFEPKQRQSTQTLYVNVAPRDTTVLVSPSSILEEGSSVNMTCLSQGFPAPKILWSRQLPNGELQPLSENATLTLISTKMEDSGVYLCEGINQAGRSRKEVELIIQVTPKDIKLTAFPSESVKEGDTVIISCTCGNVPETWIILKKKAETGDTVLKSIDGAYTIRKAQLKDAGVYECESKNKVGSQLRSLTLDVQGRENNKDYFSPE
Experimental: (§1) Journal of Bioscience and Bioengineering Vol. 100, No. 3, 311-317, 2005).
(§2) For ligand immobilization to the sensor chip CM5, the chip should be first activated with a mixture of N-hydroxysuccinimide (NHS) and […] (Amine Coupling Kit, BR-1000-50) to prepare a NHS-ester-activated chip surface being highly reactive to amino group. 1 mg/ml of ligand to be immobilized was diluted in 97 μl of each sodium acetate solution (vary within the pH range from 4.0 to 5.5) at a dilution ratio of 3/100, and then applied at a flow rate of 10 μl/min for about 3 min (as a negative control, the ligand was diluted using a running buffer, HBS-EP buffer (BIACORE AB, Sweden) in the same manner). In order to immobilize the ligand at a predetermined value target RU (resonance unit), serial injection was carried out automatically, until reaching target RU. […] The final RU was determined by an immobilization report which provides a difference in RU values before and after injection of ethanolamine.
(§3) A flow cell 2-flow cell 1 mode provided by BIACORE instrument was employed in this experiment in order to remove non-specific binding. […] Through this procedure, an association/dissociation curve of the corresponding antigen and antibody was obtained, and an association/dissociation constant KD was calculated by BIAevaluation program (BIACORE AB, Sweden), as shown in FIG. 3.

[2] = target: T1, recombinant human VCAM-1 domain 1-7/Fc …; assay: BIACORE (SPR), recombinant VCAM1/Fc immobilised on sensor chip CM5, antibody as analyte, 1:1 binding model
Experimental: as §1, §2, §3

Kd [1]: ~6.3 nM
koff [2]: 0.00176 s⁻¹
kon [2]: 279000 M⁻¹ s⁻¹
B1: 7HT antibody (VCAM-1 antibody, VCAM-1 Ab) (antibody, V domains shown)
VH: EVQLVQSGGDLVKPGESLRLSCAASGFTFNDAWMTWVRQPPGKGLEWVGRIKSTTDGGTTNYAAPVEGRFTISRDDSKNTLYLEMNSLRAEDTAVYYCARIPLFNHDSGGYHGAFDIWGQGTMVTVSS
VL: DIQMTQSPSSLAVSLGERATINCKSSQSVLYSSNNKNYLAWYQQKPGQPPKLLIYWASTRESGVPDRFSGSGSGTDFTLTISSLQPEDFASYYCQESYSAPYTFGQGTKVEIKR
notes: Human antibody, full IgG; also called VCAM-1 Ab (7HT); 7HT Ab
